Test results from PMC4552487 (2015).
Blank lines part the entries; values can stand above or below the binder they belong to.

Target: T1, Parkin (80-465)-Biotin, wild type (UniProt O60260 80-465, biotin (position not given))
T1 chain: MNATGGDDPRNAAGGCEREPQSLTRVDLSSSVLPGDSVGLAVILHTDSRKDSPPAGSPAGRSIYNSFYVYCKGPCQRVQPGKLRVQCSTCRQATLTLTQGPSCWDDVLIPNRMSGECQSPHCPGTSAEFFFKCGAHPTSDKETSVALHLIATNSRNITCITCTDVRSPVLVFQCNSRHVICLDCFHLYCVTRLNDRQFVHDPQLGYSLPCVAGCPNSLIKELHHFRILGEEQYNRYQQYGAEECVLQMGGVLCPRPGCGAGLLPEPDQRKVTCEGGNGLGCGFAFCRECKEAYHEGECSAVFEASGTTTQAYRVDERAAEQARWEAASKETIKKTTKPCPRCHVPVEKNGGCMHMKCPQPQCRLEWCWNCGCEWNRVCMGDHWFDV
Experiment: competition with GST-Ubl (AlphaScreen)

IC50: 134 nM
B1: Ubl (protein)
chain: MIVFVRFNSSHGFPVEVDSDTSIFQLKEVVAKRQGVPADQLRVIFAGKELRNDWTVQNCDLDQQSIVHIVQRPWRK

IC50: > 2530 nM
B2: Ser65-phosphorylated Parkin Ubl domain (residues 1-76) (Ubl^Phospho-Ser65) (domain or fragment)
chain: B1 chain
modifications: phosphoserine at 65
